{"source": "patent US20220213140A1", "key": {"[1]": {"biological_target": "tocilizumab", "sequence (VH, as listed by the source, chain 1 of 2)": "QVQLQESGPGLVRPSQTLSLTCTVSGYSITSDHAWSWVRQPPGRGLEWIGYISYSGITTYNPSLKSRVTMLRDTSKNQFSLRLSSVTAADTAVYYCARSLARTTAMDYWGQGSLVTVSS", "sequence (VL, as listed by the source, chain 2 of 2)": "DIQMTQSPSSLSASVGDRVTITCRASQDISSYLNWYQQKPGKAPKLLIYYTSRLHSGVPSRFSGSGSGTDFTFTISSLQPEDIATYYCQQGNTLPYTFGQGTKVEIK", "assay": "BLItz biolayer interferometry; biotinylated ligand immobilized on the chip, tocilizumab at 41.34, 82.68 and 165.3 nM in PBS (+0.1% BSA); same fitted value in all three rows of the table [C]"}, "[2]": {"biological_target": "tocilizumab", "assay": "BLI (BLItz), biotinylated ligand on sensor, antibody in solution"}}}
{"substance": "ligand of MabSelect SuRe", "values": [{"measurement": "koff", "setting": "[1]", "result": 0.00281, "unit": "s⁻¹"}, {"measurement": "kon", "setting": "[1]", "result": 346000, "unit": "M⁻¹ s⁻¹"}, {"measurement": "Kd", "setting": "[2]", "result": 8.11, "unit": "nM"}]}
